Results taken from article PMC7299280.

Experiments:
[1] = molecular target: SARS-CoV-2 spike (S) protein, recombinant (SARS-CoV-2) (UniProt P0DTC2)
[2] = molecular target: SARS-CoV-2 spike (S) protein, recombinant (SARS-CoV-2) (UniProt P0DTC2); remark: listed apart in the source

Q: With CC12.1 (antibody) as the substance, how does the in vitro IC50 neutralization against pseudovirus; pair blocked: S with ACE2 [1] read?
A: 0.019 µg/mL

Q: For CC6.33 (antibody), which neutralization IC50 of SARS-CoV-2 pseudovirus (complete neutralization) [2] is on record?
A: 0.039 µg/mL

Q: For CC12.23 (antibody), which IC50 neutralization (pseudovirus) [1] is on record?
A: 22 µg/mL
